Reference: article PMC3858362, “A Soluble Fucose-Specific Lectin from Aspergillus fumigatus Conidia - Structure, Specificity and Possible Role in Fungal Pathogenicity” (PLoS ONE, 2013)

Molecular target: the molecule itself
Assay: AUC; sedimentation velocity; AFL 0.04-0.30 mg/ml in 20 mM Tris/HCl, 300 mM NaCl, pH 7.4; 20 °C, 42,000 rpm; continuous c(s) analysis in Sedfit

B1: Aspergillus fumigatus lectin (AFL), recombinant (natural protein)
chain: MSTPGAQQVLFRTGIAAVNSTNHLRVYFQDVYGSIRESLYEGSWANGTEKNVIGNAKLGSPVAATSKELKHIRVYTLTEGNTLQEFAYDSGTGWYNGGLGGAKFQVAPYSCIAAVFLAGTDALQLRIYAQKPDNTIQEYMWNGDGWKEGTNLGGALPGTGIGATSFRYTDYNGPSIRIWFQTDDLKLVQRAYDPHKGWYPDLVTIFDRAPPRTAIAATSFGAGNSSIYMRIYFVNSDNTIWQVCWDHGKGYHDKGTITPVIQGSEVAIISWGSFANNGPDLRLYFQNGTYISAVSEWVWNRAHGSQLGRSALPPA
notes: Fucose-specific lectin AFL of Aspergillus fumigatus, gene AFUA_5G14740 (Af293 genome); cloned from a commercial cDNA library of A. fumigatus ATCC 13073 with primers from the start ATG to an in-frame stop codon; 314 aa long without the initial Met; Cloned NdeI/HindIII into pET29a with its own stop codon; no tag is mentioned; also called rAFL; AfuFleA
In the case of B1, the “stoichiometry N” value is reported as 2.
